The values that follow are results of earlier work, collected in US7708978B2, “Targeted hydrophilic polymer, binders with interferon and medical composite comprising above binders” (Beijing Jiankai Technology Co., Ltd., priority 2002, dated 2010).

For this data set the following is noted: in vivo.

For the substance interferon α, the circulation half-life was 4 to 8 h.
